Test results from the supplement of paper PMC10724198.
± gives the standard deviation of the averaged measurements.

Tests used:
Saccharomyces cerevisiae [1] = experiment: protein stability index of tFT-peptide fusion (C-terminal peptide) (PSI (0-1 scale)); higher = more stable (slower turnover)
Protocol: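 MPS profiling in S. cerevisiae of the tFT-X12 degron library: putative degron peptides plus stable controls, 12 aa, fused to the C-terminus of a sfGFP-mCherry timer. Cells are FACS-sorted into 8 mCherry/sfGFP bins and deep-sequenced. PSI runs from 0 (unstable) to 1 (stable). Backgrounds are wild type, das1Δ and doa10Δ at 30 °C, and wild type, das1Δ, cdc34-1 and cdc53-1 at 37 °C; 2-3 technical replicates each.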

Saccharomyces cerevisiae [2] = experiment: as above; details: genetic background: wild type; temperature: 30 C
[3] = genetic background: cdc34-1, temperature: 37 C
[4] = genetic background: cdc53-1, temperature: 37 C
[5] = genetic background: das1 deletion, temperature: 30 C
[6] = genetic background: das1 deletion, temperature: 37 C
[7] = genetic background: doa10 deletion, temperature: 30 C
[8] = genetic background: wild type, temperature: 30 C
[9] = genetic background: wild type, temperature: 37 C
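Note: PSI is a weighted mean of sequencing reads over stability bins, variants kept only with over 10 reads, mCherry proximal and sfGFP distal, peptide attached via GGGS linker.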

Row | Sequence | protein stability index (Saccharomyces cerevisiae [1]; [3]) | protein stability index (Saccharomyces cerevisiae [1]; [4]) | protein stability index (Saccharomyces cerevisiae [1]; [5]) | protein stability index (Saccharomyces cerevisiae [1]; [6]) | protein stability index (Saccharomyces cerevisiae [1]; [7]) | protein stability index (Saccharomyces cerevisiae [1]; [8]) | protein stability index (Saccharomyces cerevisiae [1]; [9]) | protein stability index (Saccharomyces cerevisiae [2])
1 | PRQGGDFVARVG | 0.691 ± 0.0076 | 0.726 ± 0.024 | 0.638 ± 0.016 | 0.7341 ± 0.0065 | 0.631 ± 0.027 | 0.641 ± 0.015 | 0.721 ± 0.022 | 0.7001 ± 0.0014
2 | PRSFFYIQFVFA | 0.301 ± 0.016 | 0.369 ± 0.025 | 0.233 ± 0.016 | 0.431 ± 0.011 | 0.194 ± 0.011 | 0.224 ± 0.022 | 0.375 ± 0.014 | 0.324 ± 0.0069
3 | PSDVLERVIRLL | 0.616 ± 0.027 | 0.714 ± 0.023 | 0.647 ± 0.019 | 0.7309 ± 0.00081 | 0.136 ± 0.0023 | 0.168 ± 0.01 | 0.277 ± 0.051 | 0.265 ± 0.026
4 | PSLPPLPPFAAL | 0.73 ± 0.0098 | 0.7412 ± 0.0013 | 0.676 ± 0.051 | 0.75 ± 0.021 | 0.663 ± 0.0099 | 0.661 ± 0.02 | 0.72 ± 0.024 | 0.749 ± 0.052
5 | PSPVPPPSSPSP | 0.682 ± 0.029 | 0.728 ± 0.027 | 0.67 ± 0.026 | 0.717 ± 0.022 | 0.674 ± 0.021 | 0.684 ± 0.029 | 0.7075 ± 0.0063 | 0.71 ± 0.012
6 | PSPVRSSYASTL | 0.6664 ± 0.0066 | 0.704 ± 0.024 | 0.6396 ± 0.0033 | 0.7222 ± 0.0029 | 0.6532 ± 0.0047 | 0.665 ± 0.02 | 0.68992 ± 0.00058 | 0.711 ± 0.049
7 | PSVRCVVACFIN | 0.241 ± 0.021 | 0.584 ± 0.13 | 0.464 ± 0.02 | 0.576 ± 0.0068 | 0.137 ± 0.028 | 0.172 ± 0.039 | 0.165 ± 0.015 | 0.277 ± 0.015
8 | PVGRSVFFVWFL | 0.65 ± 0.071 | 0.7009 ± 0.0022 | 0.587 ± 0.019 | 0.744 ± 0.029 | 0.3522 ± 0.0035 | 0.367 ± 0.016 | 0.554 ± 0.013 | 0.458 ± 0.019
9 | PVKGTMIKAKNT | 0.659 ± 0.088 | 0.73 ± 0.027 | 0.607 ± 0.026 | 0.71 ± 0.0026 | 0.184 ± 0.017 | 0.193 ± 0.024 | 0.341 ± 0.043 | 0.354 ± 0.068
10 | PVLSLPPLSSPP | 0.682 ± 0.032 | 0.7318 ± 0.0057 | 0.682 ± 0.0089 | 0.7244 ± 0.0058 | 0.691 ± 0.034 | 0.691 ± 0.02 | 0.7044 ± 0.0064 | 0.7068 ± 0.0043
11 | PVLYSFSLWIHL | 0.34 ± 0.049 | 0.441 ± 0.024 | 0.299 ± 0.028 | 0.457 ± 0.011 | 0.2273 ± 0.00038 | 0.255 ± 0.02 | 0.389 ± 0.02 | 0.361 ± 0.0082
12 | PVWLFLVRAIKG | 0.431 ± 0.048 | 0.455 ± 0.024 | 0.321 ± 0.028 | 0.5125 ± 0.002 | 0.262 ± 0.0072 | 0.33 ± 0.029 | 0.512 ± 0.056 | 0.431 ± 0.0097
13 | PWLLHTPLSLVF | 0.321 ± 0.032 | 0.356 ± 0.018 | 0.335 ± 0.017 | 0.403 ± 0.0063 | 0.3182 ± 0.00076 | 0.349 ± 0.0058 | 0.4 ± 0.0051 | 0.434 ± 0.0077
14 | QCLSYFFPVPVA | 0.073 ± 0.042 | 0.0838 ± 0.012 | 0.186 ± 0.03 | 0.227 ± 0.0065 | 0.147 ± 0.014 | 0.182 ± 0.02 | 0.192 ± 0.018 | 0.258 ± 0.035
15 | QGRRKEKAVTLN | 0.652 ± 0.12 | 0.685 ± 0.016 | 0.648 ± 0.041 | 0.729 ± 0.019 | 0.175 ± 0.035 | 0.193 ± 0.032 | 0.241 ± 0.022 | 0.3 ± 0.015
16 | QKGLFYCVILYC | 0.169 ± 0.019 | 0.253 ± 0.034 | 0.214 ± 0.027 | 0.3829 ± 0.0019 | 0.148 ± 0.017 | 0.156 ± 0.032 | 0.272 ± 0.0046 | 0.316 ± 0.017
17 | RDGAHFLLILVC | 0.0425 ± 0.0098 | 0.0913 ± 0.022 | 0.176 ± 0.033 | 0.2536 ± 0.0015 | 0.088 ± 0.025 | 0.125 ± 0.025 | 0.154 ± 0.019 | 0.203 ± 0.059
18 | RFFFSSFPLLIS | 0.327 ± 0.049 | 0.2628 ± 0.0026 | 0.349 ± 0.047 | 0.471 ± 0.014 | 0.207 ± 0.0091 | 0.199 ± 0.025 | 0.307 ± 0.016 | 0.282 ± 0.013
19 | RFLVVVRFYWRC | 0.288 ± 0.087 | 0.424 ± 0.013 | 0.245 ± 0.028 | 0.441 ± 0.0079 | 0.168 ± 0.015 | 0.214 ± 0.035 | 0.36 ± 0.0067 | 0.439 ± 0.044
20 | RGFIYCSFVVRL | 0.4134 ± 0.00058 | 0.466 ± 0.029 | 0.328 ± 0.025 | 0.532 ± 0.012 | 0.301 ± 0.016 | 0.33 ± 0.021 | 0.465 ± 0.022 | 0.412 ± 0.0052

Row | Sequence | protein stability index (Saccharomyces cerevisiae [1]; [3]) | protein stability index (Saccharomyces cerevisiae [1]; [4]) | protein stability index (Saccharomyces cerevisiae [1]; [5]) | protein stability index (Saccharomyces cerevisiae [1]; [6]) | protein stability index (Saccharomyces cerevisiae [1]; [7]) | protein stability index (Saccharomyces cerevisiae [1]; [8]) | protein stability index (Saccharomyces cerevisiae [1]; [9]) | protein stability index (Saccharomyces cerevisiae [2])
21 | RGLLLKILIASG | 0.376 ± 0.029 | 0.463 ± 0.034 | 0.305 ± 0.019 | 0.48 ± 0.0095 | 0.188 ± 0.012 | 0.213 ± 0.026 | 0.382 ± 0.0086 | 0.237 ± 0.081
22 | RGVGSGGLEGIG | 0.509 ± 0.06 | 0.5457 ± 0.0032 | 0.5178 ± 0.001 | 0.543 ± 0.025 | 0.51 ± 0.004 | 0.514 ± 0.021 | 0.5404 ± 0.0019 | 0.541 ± 0.061
23 | RGVPPPPWTPPP | 0.706 ± 0.041 | 0.7482 ± 0.0045 | 0.6792 ± 0.0067 | 0.731 ± 0.02 | 0.653 ± 0.012 | 0.661 ± 0.0081 | 0.716 ± 0.014 | 0.539 ± 0.062
24 | RIWRLLIIIIKK | 0.387 ± 0.015 | 0.428 ± 0.11 | 0.236 ± 0.085 | 0.565 ± 0.056 | 0.232 ± 0.023 | 0.259 ± 0.016 | 0.456 ± 0.012 | 0.325 ± 0.12
25 | RKRKKISEIIAI | 0.664 ± 0.054 | 0.708 ± 0.075 | 0.589 ± 0.036 | 0.69 ± 0.039 | 0.519 ± 0.037 | 0.572 ± 0.041 | 0.637 ± 0.003 | 0.52 ± 0.047
26 | RLPFPVVLFLLF | 0.392 ± 0.033 | 0.465 ± 0.028 | 0.387 ± 0.041 | 0.515 ± 0.026 | 0.3 ± 0.008 | 0.28 ± 0.024 | 0.404 ± 0.011 | 0.352 ± 0.013
27 | RLVMAVRVAAGG | 0.509 ± 0.025 | 0.532 ± 0.0023 | 0.347 ± 0.033 | 0.55975 ± 0.00038 | 0.327 ± 0.011 | 0.349 ± 0.015 | 0.524 ± 0.031 | 0.451 ± 0.034
28 | RMLSLFFPLRTL | 0.651 ± 0.068 | 0.69994 ± 0.00052 | 0.624 ± 0.02 | 0.724 ± 0.024 | 0.196 ± 0.011 | 0.243 ± 0.048 | 0.4527 ± 0.0036 | 0.395 ± 0.035
29 | RNWVVDGWRRFP | 0.656 ± 0.03 | 0.7425 ± 0.0034 | 0.684 ± 0.019 | 0.73543 ± 0.00011 | 0.17 ± 0.0075 | 0.192 ± 0.039 | 0.525 ± 0.031 | 0.282 ± 0.069
30 | RPCLSALRFRFF | 0.68 ± 0.037 | 0.764 ± 0.029 | 0.655 ± 0.042 | 0.727 ± 0.064 | 0.141 ± 0.023 | 0.162 ± 0.026 | 0.3204 ± 0.00076 | 0.206 ± 0.015
31 | RPHPLHIPRRLA | 0.624 ± 0.054 | 0.6848 ± 0.0035 | 0.684 ± 0.01 | 0.692 ± 0.047 | 0.146 ± 0.011 | 0.216 ± 0.072 | 0.391 ± 0.037 | 0.238 ± 0.028
32 | RQINEKKKLYMI | 0.513 ± 0.029 | 0.673 ± 0.14 | 0.639 ± 0.024 | 0.727 ± 0.041 | 0.1 ± 0.013 | 0.102 ± 0.028 | 0.182 ± 0.029 | 0.215 ± 0.033
33 | RRGLIFFLCCPA | 0.38308 ± 5.8e-05 | 0.4335 ± 0.0019 | 0.336 ± 0.027 | 0.472 ± 0.013 | 0.31 ± 0.0072 | 0.332 ± 0.039 | 0.432 ± 0.011 | 0.466 ± 0.053
34 | RRLYERNKNNKQ | 0.696 ± 0.024 | 0.741 ± 0.049 | 0.611 ± 0.036 | 0.729 ± 0.061 | 0.311 ± 0.019 | 0.387 ± 0.067 | 0.649 ± 0.013 | 0.435 ± 0.072
35 | RRRRGGQSPALR | 0.651 ± 0.049 | 0.674 ± 0.0087 | 0.71 ± 0.032 | 0.6928 ± 0.0059 | 0.735 ± 0.022 | 0.717 ± 0.03 | 0.6636 ± 0.0065 | 0.711 ± 0.015
36 | RRTTIFDTKEPP | 0.561 ± 0.02 | 0.563 ± 0.028 | 0.523 ± 0.062 | 0.5752 ± 0.0014 | 0.532 ± 0.028 | 0.511 ± 0.019 | 0.5689 ± 0.0054 | 0.462 ± 0.017
37 | RRVFPLIIVLLF | 0.115 ± 0.023 | 0.152 ± 0.014 | 0.172 ± 0.031 | 0.279 ± 0.016 | 0.174 ± 0.0077 | 0.126 ± 0.022 | 0.221 ± 0.013 | 0.202 ± 0.0087
38 | RSCKSIRGIFVC | 0.606 ± 0.068 | 0.7199 ± 0.0018 | 0.543 ± 0.018 | 0.719 ± 0.022 | 0.2 ± 0.0066 | 0.229 ± 0.02 | 0.388 ± 0.013 | 0.315 ± 0.027
39 | RSFPCITVFIRA | 0.514 ± 0.011 | 0.469 ± 0.029 | 0.328 ± 0.036 | 0.50913 ± 0.00021 | 0.325 ± 0.03 | 0.323 ± 0.023 | 0.5088 ± 0.0019 | 0.4235 ± 0.0035
